Data reported in publication doi:10.1101/2020.10.29.360719, “Phase separation of the LINE-1 ORF1 protein is mediated by the N-terminus and coiled-coil domain” (bioRxiv, 2020).
Values belong to the binder of their own block, whether it stands above or below them.

What was measured:
[1] = target: T1, ORF1_(53-152) (coiled-coil domain of ORF1) (human, UniProt Q9UN81 53-152); assay: NMR titration; 15N-1H HSQC and 15N relaxation of the 15N-enriched N-terminal construct with non-labeled coiled-coil construct added (equimolar, 700 uM each in Fig. 3C); 25 °C; 20 mM HEPES pH 7.25 or 20 mM MES pH 6.0, 200 mM NaCl, 1 mM DTT; details: both partners purified
T1 construct: Non-labeled in the NMR experiments; also called full-length coiled-coil domain; trimeric coiled-coil domain; source: E. coli BL21STAR(DE3), purified (Ni-NTA, Sephacryl S-300 gel filtration)
T1 sequence (looked up): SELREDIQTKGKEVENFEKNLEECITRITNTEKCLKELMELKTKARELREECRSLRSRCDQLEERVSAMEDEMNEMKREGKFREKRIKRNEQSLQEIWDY

[2] = target: the molecule itself; assay: SEC; gel filtration, GE HiPrep 16/60 Sephacryl S-300 HR, 20 mM Tris pH 8.0, 1 M NaCl, 1 mM DTT; self-association (trimer)

binding result [1]: binds
B1: ORF1_(1-46) (domain or fragment, human, UniProt Q9UN81 1-46, looked up)
chain: MGKKQNRKTGNSKTQSASPPPKERSSSPATEQSWMENDFDELREEG
notes: LINE-1 ORF1 protein, human, residues 1-46; Observed by 15N-1H HSQC, so isotope enriched; also called truncated ORF1_(1-46) construct; source: E. coli BL21STAR(DE3), purified (Ni-NTA, gel filtration)

binding result [1]: binds
B2: ORF1_(1-53) (disordered N-terminal region of ORF1) (domain or fragment, human, UniProt Q9UN81 1-53, looked up)
chain: MGKKQNRKTGNSKTQSASPPPKERSSSPATEQSWMENDFDELREEGFRRSNYS
notes: LINE-1 ORF1 protein, human, residues 1-53; 15N (and for assignment 13C) isotope enriched for NMR; also called N-terminus; N-terminal region (1-53); source: E. coli BL21STAR(DE3), purified (Ni-NTA, heat 70°C, gel filtration); not shown: histidine tag, C-terminal, kept

B3: ORF1_(1-141) (domain or fragment, human, UniProt Q9UN81 1-141, looked up)
chain: MGKKQNRKTGNSKTQSASPPPKERSSSPATEQSWMENDFDELREEGFRRSNYSELREDIQTKGKEVENFEKNLEECITRITNTEKCLKELMELKTKARELREECRSLRSRCDQLEERVSAMEDEMNEMKREGKFREKRIKR
notes: LINE-1 ORF1 protein, human, residues 1-141 (N-terminus and coiled-coil domain lacking the C-terminal 12 residues); source: E. coli BL21STAR(DE3), purified (Ni-NTA, gel filtration)
stoichiometry N [2]: 3

B4: full-length ORF1_(1-338) protein (LINE-1 ORF1 protein) (natural protein, human, UniProt Q9UN81 1-338, looked up)
chain: MGKKQNRKTGNSKTQSASPPPKERSSSPATEQSWMENDFDELREEGFRRSNYSELREDIQTKGKEVENFEKNLEECITRITNTEKCLKELMELKTKARELREECRSLRSRCDQLEERVSAMEDEMNEMKREGKFREKRIKRNEQSLQEIWDYVKRPNLRLIGVPESDVENGTKLENTLQDIIQENFPNLARQANVQIQEIQRTPQRYSSRRATPRHIIVRFTKVEMKEKMLRAAREKGRVTLKGKPIRLTADLSAETLQARREWGPIFNILKEKNFQPRISYPAKLSFISEGEIKYFIDKQMLRDFVTTRPALKELLKEALNMERNNRYQPLQNHAKM
notes: LINE-1 (L1) ORF1 protein, human, residues 1-338, 40 kDa; No tag removal is described; The histidine tag is only named in the legends for ORF1_(1-53); also called L1 ORF1 protein; wild-type ORF1; source: E. coli BL21STAR(DE3), purified (Ni-NTA, Sephacryl S-300 gel filtration)
stoichiometry N [2]: 3

B5: ORF1_(1-131) (domain or fragment, human, UniProt Q9UN81 1-131, looked up)
chain: MGKKQNRKTGNSKTQSASPPPKERSSSPATEQSWMENDFDELREEGFRRSNYSELREDIQTKGKEVENFEKNLEECITRITNTEKCLKELMELKTKARELREECRSLRSRCDQLEERVSAMEDEMNEMKRE
notes: LINE-1 ORF1 protein, human, residues 1-131 (N-terminus and coiled-coil domain lacking the C-terminal 22 residues); source: E. coli BL21STAR(DE3), purified (Ni-NTA, gel filtration)
stoichiometry N [2]: 3
